Source: patent publication US12116424 (WISCONSIN ALUMNI RESEARCH FOUNDATION, dated 2024)
Bridges are numbered along the chain shown (N, C = ends). Where no end group is shown, it is not given here. [ ]: non-standard residue; d: D form.

B1: Sa AIP-I (peptide)
peptide: YSTCDFIM
modifications: not fully specified; thiolactone ring Cys4-Met8 (Cys side chain to C-terminal carboxyl)
B2: Se AIP-I D1AS6A (peptide)
peptide: ASVCAAYF
modifications: not fully specified; thiolactone ring Cys4-Phe8 (Cys side chain to C-terminal carboxyl)
B3: Sa AIP-IV (peptide)
peptide: YSTCYFIM
modifications: not fully specified; thiolactone ring Cys4-Met8 (Cys side chain to C-terminal carboxyl)
B4: Sa AIP-II (peptide)
peptide: GVNACSSLF
modifications: not fully specified; thiolactone ring Cys5-Phe9 (Cys side chain to C-terminal carboxyl)
B5: Se AIP-II (peptide)
peptide: NASKYNPCSNYL
modifications: not fully specified; thiolactone ring Cys8-Leu12 (Cys side chain to C-terminal carboxyl)
B6: Se AIP-I (peptide)
peptide: DSVCASYF
modifications: not fully specified; thiolactone ring Cys4-Phe8 (Cys side chain to C-terminal carboxyl)
B7: Se AIP-I D1AV3AS6A (peptide)
peptide: ASACAAYF
modifications: not fully specified; thiolactone ring Cys4-Phe8 (Cys side chain to C-terminal carboxyl)
B8: 12-mer (peptide)
peptide: DSSMSKACFMFV
modifications: not fully specified; thiolactone ring Cys8-Val12 (Cys side chain to C-terminal carboxyl)
B9: 15-mer (peptide)
peptide: KVADSSMSKACFMFV
modifications: not fully specified; thiolactone ring Cys11-Val15 (Cys side chain to C-terminal carboxyl)
B10: 9-mer (peptide)
peptide: MSKACFMFV
modifications: not fully specified; thiolactone ring Cys5-Val9 (Cys side chain to C-terminal carboxyl)
B11: 13-mer (peptide)
peptide: ADSSMSKACFMFV
modifications: not fully specified; thiolactone ring Cys9-Val13 (Cys side chain to C-terminal carboxyl)
B12: 11-mer (peptide)
peptide: SSMSKACFMFV
modifications: not fully specified; thiolactone ring Cys7-Val11 (Cys side chain to C-terminal carboxyl)
B13: 8-mer (peptide)
peptide: SKACFMFV
modifications: not fully specified; thiolactone ring Cys4-Val8 (Cys side chain to C-terminal carboxyl)
B14: 14-mer (peptide)
peptide: VADSSMSKACFMFV
modifications: not fully specified; thiolactone ring Cys10-Val14 (Cys side chain to C-terminal carboxyl)
B15: 10-mer (peptide)
peptide: SMSKACFMFV
modifications: not fully specified; thiolactone ring Cys6-Val10 (Cys side chain to C-terminal carboxyl)

target: T1, L. monocytogenes AgrC (Listeria monocytogenes (EGD-e)); assay: cell-based or functional assay

Binder | Max Activation (agr-GFP reporter, ΔagrD strain) | Max Inhibition (agr-GFP reporter, wild-type strain)
B1 | 12.2% | 1.29%
INCAFLL (bridge 3-C; also: thiolactone: Cys3 side chain to C-terminal carboxyl) [Sa AIP-III D4A] | 12.3% | 5.87%
NAAKYNPCASYL (bridge 8-C) [Se AIP-III] | 8.73% | 0%
B2 | 12.4% | 0%
B3 | 9.81% | 8.56%
INCDFLL (bridge 3-C; also: thiolactone: Cys3 side chain to C-terminal carboxyl) [Sa AIP-III] | 11.3% | 0.64%
B4 | 12% | 0%
B5 | 8.45% | 0%
B6 | 8.65% | 0%
B7 | 12.1% | 0.06%

target: T1, L. monocytogenes AgrC; assay: cell-based or functional assay; remark: another data set of the same source

Binder | IC50 (agr-GFP reporter, wild-type strain) | Max Activation Observed (agr-GFP reporter, ΔagrD strain) | Max Inhibition Observed (agr-GFP reporter, wild-type strain) | EC50 (agr-GFP reporter, ΔagrD strain)
KA[dC]FMFV (bridge 3-C; also: thiolactone: dCys3 side chain to C-terminal carboxyl) [7-mer C3dC] | 3800 nM | 7.08% | 49.3% | –
KA[dC]F[dM]FV (bridge 3-C; also: thiolactone: dCys3 side chain to C-terminal carboxyl) [7-mer C3dC/M5dM] | 1290 nM | 7.89% | 88.9% | –
KACF[dM]FV (bridge 3-C; also: thiolactone: Cys3 side chain to C-terminal carboxyl) [7-mer M5dM] | – | 71.9% | 18.5% | 8.29 nM
KKCFMFV (bridge 3-C; also: thiolactone: Cys3 side chain to C-terminal carboxyl) [7-mer A2K] | 359 nM | 64.8% | 51.8% | 185 nM

target: T1, L. monocytogenes AgrC; assay: cell-based or functional assay; remark: another data set of the same source

Binder | EC50 (agr-GFP reporter, ΔagrD strain) | Max Activation (agr-GFP reporter, ΔagrD strain) | Max Inhibition (agr-GFP reporter, wild-type strain) | IC50 (agr-GFP reporter, wild-type strain)
B8 | 43.4 nM | 116% | 0.26% | –
B9 | 22.2 nM | 122% | 0.23% | –
B10 | 23.5 nM | 93.6% | 8.89% | 416 nM
B11 | 29 nM | 108% | 0% | –
B12 | 14.3 nM | 111% | 3.9% | –
B13 | 68.6 nM | 71.5% | 29.4% | 842 nM
B14 | 39.9 nM | 105% | 0% | –
KACFMFV (bridge 3-C; also: thiolactone: Cys3 side chain to C-terminal carboxyl) [7-mer, K-A-(C-F-M-F-V)] | 61.7 nM | 64.6% | 38.3% | 866 nM
B15 | 21.5 nM | 110% | 0% | –
